The results in this text go back to patent publication US20230279087A1 (INFLARX, published 2023).

For experiment [1], the target named is T1, recombinant human C5a (human, UniProt P01031 678-751).
T1 sequence: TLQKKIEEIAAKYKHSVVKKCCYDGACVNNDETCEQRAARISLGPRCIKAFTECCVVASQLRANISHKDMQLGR
Briefly: cell-based or functional assay.

Experiment [2] concerns the target T1, recombinant human C5a. Briefly: ELISA on C5a (ABZENA), 0-100 ng/mL antibody. Background: ELISA stands for enzyme-linked immunosorbent assay.

B1: VH4Vk3 (IFX-2 clone) (antibody, IgG4)
heavy: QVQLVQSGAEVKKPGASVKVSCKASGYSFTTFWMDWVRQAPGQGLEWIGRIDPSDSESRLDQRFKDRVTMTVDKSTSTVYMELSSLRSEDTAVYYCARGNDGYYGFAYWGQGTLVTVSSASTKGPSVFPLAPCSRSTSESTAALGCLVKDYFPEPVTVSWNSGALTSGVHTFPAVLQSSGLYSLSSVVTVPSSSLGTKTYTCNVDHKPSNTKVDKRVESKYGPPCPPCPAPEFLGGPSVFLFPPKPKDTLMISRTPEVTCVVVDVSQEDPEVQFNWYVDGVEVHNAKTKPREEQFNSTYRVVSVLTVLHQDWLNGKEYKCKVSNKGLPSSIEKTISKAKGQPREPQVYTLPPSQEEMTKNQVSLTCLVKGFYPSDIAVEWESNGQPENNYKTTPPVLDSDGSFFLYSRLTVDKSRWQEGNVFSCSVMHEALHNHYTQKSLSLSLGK
light: DIQLTQSPSSLSASVGDRVTITCKASQSVDYDGDSYMKWYQQKPGKAPKLLIYAASNLQSGIPSRFSGSGSGTDFTLTISSLQPEDFATYYCQQSNEDPYTFGQGTKLEIK
notes: Humanized IgG4 (S241P) / kappa; also called VH4/Vκ3; not shown: human kappa light chain constant domain
Turning to B1, the “relative blocking activity on rhC5a-induced CD11b upregulation on granulocytes in human whole blood (flow cytometry MFI), 16.7 nM rhC5a, Ag:Ab 1:1, IFX-1 set to 100% [lower graph]” value with recombinant human C5a [1] stood at 102%. The “Relative EC50” value with recombinant human C5a [2] was 0.91 relative to IFX-1 (VH0Vk0).

B2: VH5Vk1 (IFX-2 clone) (antibody, IgG4, V domains shown)
VH: QVQLVQSGAEVKKPGASVKVSCKASGYSFTTFWMDWVRQAPGQGLEWMGRIDPSDSESRLDQKFKDRVTMTVDKSTSTVYMELSSLRSEDTAVYYCARGNDGYYGFAYWGQGTLVTVSS
VL: DIVLTQSPASLAASVGDRVTITCKASQSVDYDGDSYMKWYQQKPGKAPKLLIYAASNLQSGIPSRFSGSGSGTDFTLTISSLQEEDFATYYCQQSNEDPYTFGQGTKLEIK
notes: Humanized IgG4 (S241P) / kappa; also called VH5/Vκ1; not shown: human kappa light chain constant domain
B2: the “relative blocking activity on rhC5a-induced CD11b upregulation on granulocytes in human whole blood (flow cytometry MFI), 16.7 nM rhC5a, Ag:Ab 1:1, IFX-1 set to 100% [lower graph]” value with recombinant human C5a [1] worked out at 101%. In addition, in the experiment with recombinant human C5a [2], the “Relative EC50” value is 1.28 relative to IFX-1 (VH0Vk0).

B3: VH4Vk1 (IFX-2 clone) (antibody, IgG4, V domains shown)
VH: QVQLVQSGAEVKKPGASVKVSCKASGYSFTTFWMDWVRQAPGQGLEWIGRIDPSDSESRLDQRFKDRVTMTVDKSTSTVYMELSSLRSEDTAVYYCARGNDGYYGFAYWGQGTLVTVSS
VL: DIVLTQSPASLAASVGDRVTITCKASQSVDYDGDSYMKWYQQKPGKAPKLLIYAASNLQSGIPSRFSGSGSGTDFTLTISSLQEEDFATYYCQQSNEDPYTFGQGTKLEIK
notes: Humanized IgG4 (S241P) / kappa; also called VH4/Vκ1; not shown: human kappa light chain constant domain
In the case of B3, in the experiment with recombinant human C5a [1], the “relative blocking activity on rhC5a-induced CD11b upregulation on granulocytes in human whole blood (flow cytometry MFI), 16.7 nM rhC5a, Ag:Ab 1:1, IFX-1 set to 100% [upper graph]” value stood at 98%. The “Relative EC50” value with recombinant human C5a [2] is 1 relative to IFX-1 (VH0Vk0).

B4: VH2Vk3 (IFX-2 clone) (antibody, IgG4, V domains shown)
VH: QVQLVQSGAEVKKPGASVKISCKASGYSFTTFWMDWVKQAPGQGLEWIGRIDPSDSESRLDQRFKDRATLTVDKSTSTVYMELSSLRSEDTAVYYCARGNDGYYGFAYWGQGTLVTVSS
VL: DIQLTQSPSSLSASVGDRVTITCKASQSVDYDGDSYMKWYQQKPGKAPKLLIYAASNLQSGIPSRFSGSGSGTDFTLTISSLQPEDFATYYCQQSNEDPYTFGQGTKLEIK
notes: Humanized IgG4 (S241P) / kappa; also called VH2/Vκ3; not shown: human kappa light chain constant domain
Consider B4, for which the “Relative EC50” value with recombinant human C5a [2] was 1.09 relative to IFX-1 (VH0Vk0).

B5: VH5Vk2 (IFX-2 clone) (antibody, IgG4)
heavy: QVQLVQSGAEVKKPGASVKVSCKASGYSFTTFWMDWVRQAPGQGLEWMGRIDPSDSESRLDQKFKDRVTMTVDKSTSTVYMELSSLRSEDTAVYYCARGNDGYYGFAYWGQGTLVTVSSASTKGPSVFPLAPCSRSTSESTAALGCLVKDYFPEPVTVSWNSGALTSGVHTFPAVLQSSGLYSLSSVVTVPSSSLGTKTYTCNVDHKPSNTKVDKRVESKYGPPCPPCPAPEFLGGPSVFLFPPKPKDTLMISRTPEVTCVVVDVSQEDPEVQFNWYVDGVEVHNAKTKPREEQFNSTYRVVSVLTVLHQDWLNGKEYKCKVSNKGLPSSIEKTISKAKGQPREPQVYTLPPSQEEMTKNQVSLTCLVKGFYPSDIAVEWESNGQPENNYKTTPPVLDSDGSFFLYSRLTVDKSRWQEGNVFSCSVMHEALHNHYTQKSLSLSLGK
light: DIVLTQSPASLSASVGDRVTITCKASQSVDYDGDSYMKWYQQKPGKAPKLLIYAASNLQSGIPSRFSGSGSGTDFTLTISSLQPEDFATYYCQQSNEDPYTFGQGTKLEIK
notes: Humanized IgG4 (S241P) / kappa; also called VH5/Vκ2; not shown: human kappa light chain constant domain
For B5, the “relative blocking activity on rhC5a-induced CD11b upregulation on granulocytes in human whole blood (flow cytometry MFI), 16.7 nM rhC5a, Ag:Ab 1:1, IFX-1 set to 100% [lower graph]” value with recombinant human C5a [1] is 103%. In addition, the “Relative EC50” value with recombinant human C5a [2] is 1.05 relative to IFX-1 (VH0Vk0).

B6: VH2Vk4 (IFX-2 clone) (antibody, IgG4, V domains shown)
VH: QVQLVQSGAEVKKPGASVKISCKASGYSFTTFWMDWVKQAPGQGLEWIGRIDPSDSESRLDQRFKDRATLTVDKSTSTVYMELSSLRSEDTAVYYCARGNDGYYGFAYWGQGTLVTVSS
VL: DIQMTQSPSSLSASVGDRVTITCKASQSVDYDGDSYMKWYQQKPGKAPKLLIYAASNLQSGVPSRFSGSGSGTDFTLTISSLQPEDFATYYCQQSNEDPYTFGQGTKLEIK
notes: Humanized IgG4 (S241P) / kappa; also called VH2/Vκ4; not shown: human kappa light chain constant domain
On to B6, for which the “Relative EC50” value with recombinant human C5a [2] was 0.99 relative to IFX-1 (VH0Vk0).

B7: VH3Vk2 (IFX-2 clone) (antibody, IgG4, V domains shown)
VH: QVQLVQSGAEVKKPGASVKVSCKASGYSFTTFWMDWVRQAPGQGLEWIGRIDPSDSESRLDQRFKDRATLTVDKSTSTVYMELSSLRSEDTAVYYCARGNDGYYGFAYWGQGTLVTVSS
VL: DIVLTQSPASLSASVGDRVTITCKASQSVDYDGDSYMKWYQQKPGKAPKLLIYAASNLQSGIPSRFSGSGSGTDFTLTISSLQPEDFATYYCQQSNEDPYTFGQGTKLEIK
notes: Humanized IgG4 (S241P) / kappa; also called VH3/Vκ2; not shown: human kappa light chain constant domain
Take B7: the “relative blocking activity on rhC5a-induced CD11b upregulation on granulocytes in human whole blood (flow cytometry MFI), 16.7 nM rhC5a, Ag:Ab 1:1, IFX-1 set to 100% [upper graph]” value with recombinant human C5a [1] worked out at 96%. The “Relative EC50” value in the experiment with recombinant human C5a [2] is 1.05 relative to IFX-1 (VH0Vk0).

B8: VH4Vk4 (IFX-2 clone) (antibody, IgG4, V domains shown)
VH: QVQLVQSGAEVKKPGASVKVSCKASGYSFTTFWMDWVRQAPGQGLEWIGRIDPSDSESRLDQRFKDRVTMTVDKSTSTVYMELSSLRSEDTAVYYCARGNDGYYGFAYWGQGTLVTVSS
VL: DIQMTQSPSSLSASVGDRVTITCKASQSVDYDGDSYMKWYQQKPGKAPKLLIYAASNLQSGVPSRFSGSGSGTDFTLTISSLQPEDFATYYCQQSNEDPYTFGQGTKLEIK
notes: Humanized IgG4 (S241P) / kappa; also called VH4/Vκ4; not shown: human kappa light chain constant domain
Turning to B8, the “relative blocking activity on rhC5a-induced CD11b upregulation on granulocytes in human whole blood (flow cytometry MFI), 16.7 nM rhC5a, Ag:Ab 1:1, IFX-1 set to 100% [upper graph]” value with recombinant human C5a [1] turned out to be 102%. Also, the “Relative EC50” value with recombinant human C5a [2] was 1.03 relative to IFX-1 (VH0Vk0).

B9: VH5Vk3 (IFX-2 clone) (antibody, IgG4)
heavy: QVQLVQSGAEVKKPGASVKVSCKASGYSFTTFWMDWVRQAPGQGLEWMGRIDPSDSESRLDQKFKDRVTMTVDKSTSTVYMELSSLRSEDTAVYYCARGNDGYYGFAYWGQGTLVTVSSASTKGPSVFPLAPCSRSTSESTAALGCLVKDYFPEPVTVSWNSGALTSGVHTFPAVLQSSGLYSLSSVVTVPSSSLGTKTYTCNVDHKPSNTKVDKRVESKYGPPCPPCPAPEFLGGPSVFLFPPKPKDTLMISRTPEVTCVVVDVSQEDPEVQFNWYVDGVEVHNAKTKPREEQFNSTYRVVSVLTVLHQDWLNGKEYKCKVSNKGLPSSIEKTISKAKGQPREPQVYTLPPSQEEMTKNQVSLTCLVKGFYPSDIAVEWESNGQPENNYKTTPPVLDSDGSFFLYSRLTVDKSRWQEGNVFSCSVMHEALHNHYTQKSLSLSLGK
light: DIQLTQSPSSLSASVGDRVTITCKASQSVDYDGDSYMKWYQQKPGKAPKLLIYAASNLQSGIPSRFSGSGSGTDFTLTISSLQPEDFATYYCQQSNEDPYTFGQGTKLEIK
notes: Humanized IgG4 (S241P) / kappa; also called VH5/Vκ3; not shown: human kappa light chain constant domain
Turning to B9, the “relative blocking activity on rhC5a-induced CD11b upregulation on granulocytes in human whole blood (flow cytometry MFI), 16.7 nM rhC5a, Ag:Ab 1:1, IFX-1 set to 100% [upper graph]” value in the experiment with recombinant human C5a [1] came to 96%. The “Relative EC50” value with recombinant human C5a [2] was 1.14 relative to IFX-1 (VH0Vk0).

B10: VH3Vk4 (IFX-2 clone) (antibody, IgG4, V domains shown)
VH: QVQLVQSGAEVKKPGASVKVSCKASGYSFTTFWMDWVRQAPGQGLEWIGRIDPSDSESRLDQRFKDRATLTVDKSTSTVYMELSSLRSEDTAVYYCARGNDGYYGFAYWGQGTLVTVSS
VL: DIQMTQSPSSLSASVGDRVTITCKASQSVDYDGDSYMKWYQQKPGKAPKLLIYAASNLQSGVPSRFSGSGSGTDFTLTISSLQPEDFATYYCQQSNEDPYTFGQGTKLEIK
notes: Humanized IgG4 (S241P) / kappa; also called VH3/Vκ4; not shown: human kappa light chain constant domain
With B10, in the experiment with recombinant human C5a [1], the “relative blocking activity on rhC5a-induced CD11b upregulation on granulocytes in human whole blood (flow cytometry MFI), 16.7 nM rhC5a, Ag:Ab 1:1, IFX-1 set to 100% [lower graph]” value is 103%. The “Relative EC50” value with recombinant human C5a [2] is 0.86 relative to IFX-1 (VH0Vk0).

B11: VH5Vk4 (IFX-2 clone) (antibody, IgG4, V domains shown)
VH: QVQLVQSGAEVKKPGASVKVSCKASGYSFTTFWMDWVRQAPGQGLEWMGRIDPSDSESRLDQKFKDRVTMTVDKSTSTVYMELSSLRSEDTAVYYCARGNDGYYGFAYWGQGTLVTVSS
VL: DIQMTQSPSSLSASVGDRVTITCKASQSVDYDGDSYMKWYQQKPGKAPKLLIYAASNLQSGVPSRFSGSGSGTDFTLTISSLQPEDFATYYCQQSNEDPYTFGQGTKLEIK
notes: Humanized IgG4 (S241P) / kappa; also called VH5/Vκ4; not shown: human kappa light chain constant domain
On to B11, for which the “relative blocking activity on rhC5a-induced CD11b upregulation on granulocytes in human whole blood (flow cytometry MFI), 16.7 nM rhC5a, Ag:Ab 1:1, IFX-1 set to 100% [upper graph]” value with recombinant human C5a [1] turned out to be 94%. Also, the “Relative EC50” value in the experiment with recombinant human C5a [2] was 1.53 relative to IFX-1 (VH0Vk0).

B12: VH4Vk2 (IFX-2 clone) (antibody, IgG4)
heavy: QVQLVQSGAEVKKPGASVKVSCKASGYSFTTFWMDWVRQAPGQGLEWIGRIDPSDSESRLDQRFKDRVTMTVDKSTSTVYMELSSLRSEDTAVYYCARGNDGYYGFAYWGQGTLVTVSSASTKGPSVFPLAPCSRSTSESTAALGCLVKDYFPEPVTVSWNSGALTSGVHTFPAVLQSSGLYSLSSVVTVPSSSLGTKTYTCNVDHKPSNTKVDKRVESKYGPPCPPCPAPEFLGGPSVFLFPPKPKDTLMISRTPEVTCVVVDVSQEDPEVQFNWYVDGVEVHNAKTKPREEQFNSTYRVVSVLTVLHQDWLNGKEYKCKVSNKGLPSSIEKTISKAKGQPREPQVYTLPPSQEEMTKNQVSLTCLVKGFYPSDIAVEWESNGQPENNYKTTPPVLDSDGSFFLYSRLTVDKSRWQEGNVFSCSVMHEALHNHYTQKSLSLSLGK
light: DIVLTQSPASLSASVGDRVTITCKASQSVDYDGDSYMKWYQQKPGKAPKLLIYAASNLQSGIPSRFSGSGSGTDFTLTISSLQPEDFATYYCQQSNEDPYTFGQGTKLEIK
notes: Humanized IgG4 (S241P) / kappa; also called VH4/Vκ2; not shown: human kappa light chain constant domain
On to B12, for which, in the experiment with recombinant human C5a [1], the “relative blocking activity on rhC5a-induced CD11b upregulation on granulocytes in human whole blood (flow cytometry MFI), 16.7 nM rhC5a, Ag:Ab 1:1, IFX-1 set to 100% [lower graph]” value was found to be 104%. The “Relative EC50” value in the experiment with recombinant human C5a [2] is 0.86 relative to IFX-1 (VH0Vk0).

B13: IFX-1 (VH0/Vκ0), chimeric anti-human C5a IgG4 antibody (antibody, V domains shown)
VH: QVQLQQSGPQLVRPGTSVKISCKASGYSFTTFWMDWVKQRPGQGLEWIGRIDPSDSESRLDQRFKDRATLTVDKSSSTVYMQLSSPTSEDSAVYYCARGNDGYYGFAYWGQGTLVTVSS
VL: DIVLTQSPASLAVSLGQRATISCKASQSVDYDGDSYMKWYQQKPGQPPKLLIYAASNLQSGIPARFSGSGSGTDFTLNIHPVEEEDAATYYCQQSNEDPYTFGGGTKLEIK
notes: also called VH0Vk0; VH0Vk0 (IFX-1); not shown: human kappa light chain constant domain
Turning to B13, the “Relative EC50” value with recombinant human C5a [2] is 1 relative to IFX-1 (VH0Vk0).
